This note sets out measurements from paper PMC4709591.

Assay [1] addresses human toll-like receptor 5 (TLR5) (human) (UniProt O60602).
Assay [2] shares this target. The source holds these as a separate data set.
Assay [3] shares this target. This is another data set of the same source.
The target is the same in assay [4]. This is another data set of the same source.

Chain of UniProt O60602 (O60602 21-858): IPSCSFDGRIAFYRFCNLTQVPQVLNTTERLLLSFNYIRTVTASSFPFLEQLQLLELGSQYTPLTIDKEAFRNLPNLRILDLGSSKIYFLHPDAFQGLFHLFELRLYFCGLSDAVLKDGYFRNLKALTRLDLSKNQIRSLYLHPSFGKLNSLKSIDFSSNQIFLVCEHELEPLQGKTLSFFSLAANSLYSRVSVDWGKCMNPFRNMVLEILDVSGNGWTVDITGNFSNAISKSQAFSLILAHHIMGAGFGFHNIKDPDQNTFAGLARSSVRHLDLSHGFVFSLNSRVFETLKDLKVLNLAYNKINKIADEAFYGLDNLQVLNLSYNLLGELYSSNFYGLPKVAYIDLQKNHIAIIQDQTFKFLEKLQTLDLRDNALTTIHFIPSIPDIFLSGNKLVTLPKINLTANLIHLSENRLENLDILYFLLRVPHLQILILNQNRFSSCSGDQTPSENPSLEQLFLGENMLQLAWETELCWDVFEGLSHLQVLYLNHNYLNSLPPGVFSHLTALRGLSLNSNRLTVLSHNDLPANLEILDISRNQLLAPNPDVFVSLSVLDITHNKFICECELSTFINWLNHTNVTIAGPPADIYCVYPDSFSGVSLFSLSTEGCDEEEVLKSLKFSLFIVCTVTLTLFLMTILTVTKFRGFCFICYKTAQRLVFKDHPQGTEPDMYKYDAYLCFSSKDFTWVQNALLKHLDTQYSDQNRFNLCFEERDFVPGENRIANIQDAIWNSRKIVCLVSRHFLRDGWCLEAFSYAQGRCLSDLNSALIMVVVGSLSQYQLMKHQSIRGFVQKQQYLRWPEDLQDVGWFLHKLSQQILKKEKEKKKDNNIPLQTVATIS

In turn, “flagellin (FliC) from S. typhimurium SL1344, full-length (from UniProt P06179 1-495) (natural protein)” registered an EC50 of bioactivity (SEAP reporter in HEK-Blue-hTLR5 cells) in assay [1] of 1.3 pM. “flagellin mutant SS1 (L12-N484 replaced with cysteine) (from UniProt P06179 1-495) (natural protein)” registered an EC50 of bioactivity (cell-based TLR5 stimulation assay); decreased against native flagellin in assay [2] below 10 pM. “flagellin mutant SS2 (Q22-Q473 replaced with cysteine) (from UniProt P06179 1-495) (natural protein)”: the EC50 of bioactivity (cell-based TLR5 stimulation assay); decreased against native flagellin in assay [2] is below 10 pM. On to “flagellin mutant SS3 (Q22-T477 replaced with cysteine) (from UniProt P06179 1-495) (natural protein)”, for which, in assay [2], the EC50 of bioactivity (cell-based TLR5 stimulation assay); decreased against native flagellin was below 10 pM. On the same count and under the same terms, the result for “flagellin mutant SS4 (G35-S457 replaced with cysteine) (from UniProt P06179 1-495) (natural protein)” reads below 10 pM; that for “flagellin mutant SS5 (L36-D456 replaced with cysteine) (from UniProt P06179 1-495) (natural protein)”, below 10 pM. Still for that read-out and setting: the result for “flagellin mutant SS6 (A51-R451 replaced with cysteine) (from UniProt P06179 1-495) (natural protein)” reads below 10 pM. Regarding “flagellin without the C-terminal D0 domain (S452-R495) (from UniProt P06179 1-451) (domain or fragment)”, in assay [1], the EC50 of bioactivity (SEAP reporter in HEK-Blue-hTLR5 cells) was 80 pM. For the substance “flagellin-HBc VLP conjugate with 2 flagellins on a VLP (1:40 reactant ratio) (from UniProt P06179 1-495) (complex)”, in assay [3], the potency of TLR5 stimulation, based on flagellin concentration (SEAP reporter in HEK-Blue-hTLR5 cells) was found to be 1 pM. In addition, the bioactivity against free flagellin (SEAP reporter in HEK-Blue-hTLR5 cells) in assay [4] was found to be 7 fold. “flagellin-HBc VLP conjugate with 10 flagellins on a VLP (1:10 reactant ratio) (from UniProt P06179 1-495) (complex)”: the bioactivity against free flagellin (SEAP reporter in HEK-Blue-hTLR5 cells) in assay [4] was determined as 7 fold. Substance “flagellin-HBc VLP conjugate with 33 flagellins on a VLP (1:2 reactant ratio) (from UniProt P06179 1-495) (complex)” gave a potency of TLR5 stimulation, based on flagellin concentration (SEAP reporter in HEK-Blue-hTLR5 cells) in assay [3] of 1 pM. In assay [4], this substance yielded a bioactivity against free flagellin (SEAP reporter in HEK-Blue-hTLR5 cells) of 7 fold. “soluble SS5 HIII flagellin (L36C-D456C; HPG1+A2I+M310I+M466I) (from UniProt P06179 1-495) (natural protein)” returned a minimum flagellin concentration stimulating the TLR5 receptors (SEAP reporter in HEK-Blue-hTLR5 cells) in assay [4] of 0.2 pM.
